According to article PMC12318543:
Where two headings read alike, the source gives them in different places.

Assays:
[1] = molecular target: PtuA (Escherichia coli Septu system) (Escherichia coli (strain ATCC 25922)); experiment: cryo-EM structure
[2] = molecular target: PtuA (Escherichia coli Septu system) (Escherichia coli (strain ATCC 25922)); experiment: cryo-EM structure; remark: listed apart in the source
[3] = molecular target: PtuA L81R mutant (Escherichia coli (strain ATCC 25922)); experiment: mass photometry

Substance	stoichiometry N [1]	stoichiometry N [2]	stoichiometry N [3]
PtuA (Escherichia coli Septu system) (natural protein)	6	6	
PtuA L81R mutant (natural protein)			2
